# T1: FcγRIIb (human, UniProt P31994 43-217)
# T1 construct: extracellular domain; also called FcgRIIb; 2b; not shown: His tag attached to the C terminus
# T1 sequence (looked up): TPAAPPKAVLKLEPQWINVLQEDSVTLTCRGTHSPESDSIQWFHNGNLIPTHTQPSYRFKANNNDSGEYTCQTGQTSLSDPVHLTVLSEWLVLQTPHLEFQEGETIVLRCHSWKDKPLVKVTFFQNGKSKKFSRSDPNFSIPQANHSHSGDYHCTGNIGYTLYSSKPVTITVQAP
# T2: FcγRIIa H (human, UniProt P12318 34-217)
# T2 construct: extracellular domain; also called FcgRIIa H; 2aH; not shown: His tag attached to the C terminus
# T2 sequence (looked up): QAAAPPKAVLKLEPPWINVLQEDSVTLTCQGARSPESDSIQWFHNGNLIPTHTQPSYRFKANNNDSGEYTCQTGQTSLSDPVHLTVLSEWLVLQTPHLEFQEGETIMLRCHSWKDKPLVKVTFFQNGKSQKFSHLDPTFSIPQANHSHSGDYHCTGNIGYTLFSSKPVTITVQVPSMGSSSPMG
# B1: GpH7-A5/GpH7-B3 variant G236_19Q/GpL16-k0 (antibody, human IgG1, kappa)
# heavy 1: not shown
# heavy 2: not shown
# light: DIVMTQSPLSLPVTPGEPASISCQASESLVHSNRNTYLHWYLQKPGQSPQLLIYKVSNRFSGVPDRFSGSGSGTDFTLKISRVEAEDVGVYYCSQNTHVPPTFGQGTKVEIERTVAAPSVFIFPPSDEQLKSGTASVVCLLNNFYPREAKVQWKVDNALQSGNSQESVTEQDSKDSTYSLSSTLTLSKADYEKHKVYACEVTHQGLSSPVTKSFNRGEC
# notes: Heterodimerized anti-glypican-3 IgG1; mutation in one H chain only; also called He Ab
# B2: GpH7-A5/GpH7-B3 variant S239_11K/GpL16-k0 (antibody, human IgG1, kappa)
# heavy 1: not shown
# heavy 2: not shown
# light: DIVMTQSPLSLPVTPGEPASISCQASESLVHSNRNTYLHWYLQKPGQSPQLLIYKVSNRFSGVPDRFSGSGSGTDFTLKISRVEAEDVGVYYCSQNTHVPPTFGQGTKVEIERTVAAPSVFIFPPSDEQLKSGTASVVCLLNNFYPREAKVQWKVDNALQSGNSQESVTEQDSKDSTYSLSSTLTLSKADYEKHKVYACEVTHQGLSSPVTKSFNRGEC
# notes: as for B1
# B3: GpH7-A5/GpH7-B3 variant H268_04F/GpL16-k0 (antibody, human IgG1, kappa)
# heavy 1: not shown
# heavy 2: not shown
# light: DIVMTQSPLSLPVTPGEPASISCQASESLVHSNRNTYLHWYLQKPGQSPQLLIYKVSNRFSGVPDRFSGSGSGTDFTLKISRVEAEDVGVYYCSQNTHVPPTFGQGTKVEIERTVAAPSVFIFPPSDEQLKSGTASVVCLLNNFYPREAKVQWKVDNALQSGNSQESVTEQDSKDSTYSLSSTLTLSKADYEKHKVYACEVTHQGLSSPVTKSFNRGEC
# notes: as for B1
# B4: GpH7-A5/GpH7-B3 variant S239_16H/GpL16-k0 (antibody, human IgG1, kappa)
# heavy 1: not shown
# heavy 2: not shown
# light: DIVMTQSPLSLPVTPGEPASISCQASESLVHSNRNTYLHWYLQKPGQSPQLLIYKVSNRFSGVPDRFSGSGSGTDFTLKISRVEAEDVGVYYCSQNTHVPPTFGQGTKVEIERTVAAPSVFIFPPSDEQLKSGTASVVCLLNNFYPREAKVQWKVDNALQSGNSQESVTEQDSKDSTYSLSSTLTLSKADYEKHKVYACEVTHQGLSSPVTKSFNRGEC
# notes: as for B1
# B5: GpH7-A5/GpH7-B3 variant H268_06M/GpL16-k0 (antibody, human IgG1, kappa)
# heavy 1: not shown
# heavy 2: not shown
# light: DIVMTQSPLSLPVTPGEPASISCQASESLVHSNRNTYLHWYLQKPGQSPQLLIYKVSNRFSGVPDRFSGSGSGTDFTLKISRVEAEDVGVYYCSQNTHVPPTFGQGTKVEIERTVAAPSVFIFPPSDEQLKSGTASVVCLLNNFYPREAKVQWKVDNALQSGNSQESVTEQDSKDSTYSLSSTLTLSKADYEKHKVYACEVTHQGLSSPVTKSFNRGEC
# notes: as for B1
# B6: GpH7-A5/GpH7-B3 variant H268_08L/GpL16-k0 (antibody, human IgG1, kappa)
# heavy 1: not shown
# heavy 2: not shown
# light: DIVMTQSPLSLPVTPGEPASISCQASESLVHSNRNTYLHWYLQKPGQSPQLLIYKVSNRFSGVPDRFSGSGSGTDFTLKISRVEAEDVGVYYCSQNTHVPPTFGQGTKVEIERTVAAPSVFIFPPSDEQLKSGTASVVCLLNNFYPREAKVQWKVDNALQSGNSQESVTEQDSKDSTYSLSSTLTLSKADYEKHKVYACEVTHQGLSSPVTKSFNRGEC
# notes: as for B1
# B7: GpH7-A5/GpH7-B3 variant S239_12R/GpL16-k0 (antibody, human IgG1, kappa)
# heavy 1: not shown
# heavy 2: not shown
# light: DIVMTQSPLSLPVTPGEPASISCQASESLVHSNRNTYLHWYLQKPGQSPQLLIYKVSNRFSGVPDRFSGSGSGTDFTLKISRVEAEDVGVYYCSQNTHVPPTFGQGTKVEIERTVAAPSVFIFPPSDEQLKSGTASVVCLLNNFYPREAKVQWKVDNALQSGNSQESVTEQDSKDSTYSLSSTLTLSKADYEKHKVYACEVTHQGLSSPVTKSFNRGEC
# notes: as for B1
# B8: GpH7-A5/GpH7-B3 variant G236_20W/GpL16-k0 (antibody, human IgG1, kappa)
# heavy 1: not shown
# heavy 2: not shown
# light: DIVMTQSPLSLPVTPGEPASISCQASESLVHSNRNTYLHWYLQKPGQSPQLLIYKVSNRFSGVPDRFSGSGSGTDFTLKISRVEAEDVGVYYCSQNTHVPPTFGQGTKVEIERTVAAPSVFIFPPSDEQLKSGTASVVCLLNNFYPREAKVQWKVDNALQSGNSQESVTEQDSKDSTYSLSSTLTLSKADYEKHKVYACEVTHQGLSSPVTKSFNRGEC
# notes: Heterodimerized anti-glypican-3 IgG1; mutation in one H chain only; also called He Ab; GpH7-A5/GpH7-B3-03-20W/GpL16-k0
# Assays:
# [1] = target: T1, FcγRIIb; assay: SPR (Biacore), antibody captured on antigen peptide chip, FcγR as analyte; relative binding activity
# Protocol: (§1) The heterodimerized antibodies He Abs in which one of the H chains was introduced with an alteration were assayed for their binding activities to each activating FcγR and inhibitory FcγR according to the method described in Example 4. […] The activating FcγRs in FIGS. 26, 27, 28, and 29 are FcγRIa, FcγRIIa (R), FcγRIIa (H), and FcγRIIIa, respectively.
# (§2) Analysis of interaction between objective antibody and the FcγR was carried out using Biacore T100 (GE Healthcare). HBS-EP+ (GE Healthcare) was used as the running buffer, and the measurement temperature was set to 25° C. Chips produced by immobilizing the antigen peptide by the amine coupling method to a Series S Sencor Chip CM5 (GE Healthcare), or alternatively, chips produced by allowing preliminarily biotinylated antigen peptides to interact with and immobilize onto a Series S Sensor Chip SA (certified) (GE Healthcare) were used. Antibodies of interest were captured onto an antigen peptide-immobilized chip, and allowed to interact to each FcγR diluted with running buffer. To regenerate and repeatedly use the chip, the antibodies captured on the chip were washed off by reacting 10 mM glycine-HCl, pH 1.5.
# [2] = target: T2, FcγRIIa H; assay: as above
# Protocol: as §1, §2
# [3] = target: T2, FcγRIIa H; assay: SPR; He/Con for FcγRIIa H divided by He/Con for FcγRIIb
binder,measurement,setting,value
B1,He/Con_2b,[1],46.6 % of GpH7-A5/GpH7-B3/GpL16-k0 (=100)
same,He/Con_2aH,[2],89.1 % of GpH7-A5/GpH7-B3/GpL16-k0 (=100)
same,He_2aH/2b (IIaH/IIb),[3],1.91 ratio
B2,He/Con_2b,[1],24.7 % of GpH7-A5/GpH7-B3/GpL16-k0 (=100)
same,He/Con_2aH,[2],48.1 % of GpH7-A5/GpH7-B3/GpL16-k0 (=100)
same,He_2aH/2b (IIaH/IIb),[3],1.94 ratio
B3,He/Con_2b,[1],89.6 % of GpH7-A5/GpH7-B3/GpL16-k0 (=100)
same,He/Con_2aH,[2],111 % of GpH7-A5/GpH7-B3/GpL16-k0 (=100)
same,He_2aH/2b (IIaH/IIb),[3],1.24 ratio
B4,He/Con_2b,[1],49.4 % of GpH7-A5/GpH7-B3/GpL16-k0 (=100)
same,He/Con_2aH,[2],59.4 % of GpH7-A5/GpH7-B3/GpL16-k0 (=100)
same,He_2aH/2b (IIaH/IIb),[3],1.2 ratio
B5,He/Con_2b,[1],65.7 % of GpH7-A5/GpH7-B3/GpL16-k0 (=100)
same,He/Con_2aH,[2],84.8 % of GpH7-A5/GpH7-B3/GpL16-k0 (=100)
same,He_2aH/2b (IIaH/IIb),[3],1.29 ratio
B6,He/Con_2b,[1],67.8 % of GpH7-A5/GpH7-B3/GpL16-k0 (=100)
same,He/Con_2aH,[2],85 % of GpH7-A5/GpH7-B3/GpL16-k0 (=100)
same,He_2aH/2b (IIaH/IIb),[3],1.25 ratio
B7,He/Con_2b,[1],39.1 % of GpH7-A5/GpH7-B3/GpL16-k0 (=100)
same,He/Con_2aH,[2],57.1 % of GpH7-A5/GpH7-B3/GpL16-k0 (=100)
same,He_2aH/2b (IIaH/IIb),[3],1.46 ratio
B8,He/Con_2b,[1],58.2 % of GpH7-A5/GpH7-B3/GpL16-k0 (=100)
same,He/Con_2aH,[2],147 % of GpH7-A5/GpH7-B3/GpL16-k0 (=100)
same,He_2aH/2b (IIaH/IIb),[3],2.52 ratio

# From US20150344570A1 (published 2015)
